# Laboratory results from PMC10853514.
# Target: human myosin VI heavy chain, full length, containing both the large-insertion (LI) and small-insertion (SI) regions (human) (UniProt Q9UM54)
# Assay: cryo-EM structure; single-particle cryo-EM of myosin VI/CaM in PB, TB + AMPPNP and PB + ATP, the three datasets combined; autoinhibited state, 3.54 Å (4.14 Å map with the SAH-E)
# Chain of human myosin VI heavy chain, full length, containing both the large-insertion (LI) and small-insertion (SI) regions (human) (Q9UM54 other isoform, or with tags, fused parts or gaps): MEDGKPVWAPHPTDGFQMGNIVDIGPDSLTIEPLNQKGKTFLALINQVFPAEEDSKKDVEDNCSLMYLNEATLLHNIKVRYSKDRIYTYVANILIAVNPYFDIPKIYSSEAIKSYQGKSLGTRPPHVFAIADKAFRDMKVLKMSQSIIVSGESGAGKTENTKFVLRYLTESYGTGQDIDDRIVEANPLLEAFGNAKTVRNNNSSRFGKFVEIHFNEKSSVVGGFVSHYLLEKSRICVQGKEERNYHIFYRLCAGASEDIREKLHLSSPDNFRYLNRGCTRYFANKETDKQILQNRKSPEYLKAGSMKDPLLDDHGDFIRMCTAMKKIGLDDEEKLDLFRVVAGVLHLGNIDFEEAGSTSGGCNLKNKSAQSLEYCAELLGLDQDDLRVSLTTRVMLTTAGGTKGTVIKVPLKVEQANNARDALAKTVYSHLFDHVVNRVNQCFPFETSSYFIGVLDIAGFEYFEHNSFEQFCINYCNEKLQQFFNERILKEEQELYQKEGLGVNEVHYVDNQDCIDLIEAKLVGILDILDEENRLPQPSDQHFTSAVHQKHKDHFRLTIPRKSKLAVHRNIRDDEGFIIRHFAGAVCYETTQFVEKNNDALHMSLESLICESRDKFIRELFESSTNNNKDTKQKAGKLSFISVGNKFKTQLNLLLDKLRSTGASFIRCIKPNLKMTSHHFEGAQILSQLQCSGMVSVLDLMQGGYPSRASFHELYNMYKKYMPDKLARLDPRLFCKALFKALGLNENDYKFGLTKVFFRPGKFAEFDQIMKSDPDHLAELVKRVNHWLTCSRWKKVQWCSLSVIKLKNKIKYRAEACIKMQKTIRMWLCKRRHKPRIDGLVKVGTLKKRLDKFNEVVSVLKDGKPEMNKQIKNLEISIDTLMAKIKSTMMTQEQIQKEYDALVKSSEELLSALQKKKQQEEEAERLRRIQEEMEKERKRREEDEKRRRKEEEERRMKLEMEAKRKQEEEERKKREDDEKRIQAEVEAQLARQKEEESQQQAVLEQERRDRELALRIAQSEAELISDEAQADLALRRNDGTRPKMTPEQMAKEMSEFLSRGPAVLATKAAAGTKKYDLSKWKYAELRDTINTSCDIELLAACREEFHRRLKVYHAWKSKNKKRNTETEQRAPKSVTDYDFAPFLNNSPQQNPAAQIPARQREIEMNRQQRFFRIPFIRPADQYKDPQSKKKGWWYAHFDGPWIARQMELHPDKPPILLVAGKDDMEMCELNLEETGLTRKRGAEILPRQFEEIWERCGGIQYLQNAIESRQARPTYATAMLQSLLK
substance,measurement,value
"calmodulin (CaM), light chain of myosin VI (from UniProt P0DP23 1-149) (natural protein)",stoichiometry N,2
